Results taken from the Human Domainome abundance scans (Beltran et al. 2025).
± gives the uncertainty stated by the source.

B1: POU domain, class 3, transcription factor 1, residues 247 to 324; numbered along this chain, Q03052 (parent)
chain: EDAPSSDDLEQFAKQFKQRRIKLGFTQADVGLALGTLYGNVFSQTTICRFEALQLSFKNMCKLKPLLNKWLEETDSSS

Variants of: B1
Experiment: abundance fitness (aPCA) (normalised: wild type 0, dead -1); higher = more abundant; growth selection in yeast, the domain comes from the species named
Settings: Homo sapiens

Row | Variant | abundance fitness
1 | N68M | 0.042 ± 0.063
2 | S56R | -0.501 ± 0.065
3 | S6D | 0.125 ± 0.096
4 | A33E | 0.047 ± 0.074
5 | K58P | 0.13 ± 0.069
6 | C61P | -0.988 ± 0.21
7 | K58Q | -0.012 ± 0.068
8 | Y38D | -0.058 ± 0.12
9 | T45Y | -0.304 ± 0.28
10 | S77D | 0.036 ± 0.064
11 | Q27A | -0.051 ± 0.074
12 | V41G | 0.016 ± 0.039
13 | K58T | 0.021 ± 0.074
14 | Q27R | -0.49 ± 0.078
15 | S76L | -0.112 ± 0.074
16 | A28G | -0.083 ± 0.052
17 | L37N | -0.333 ± 0.19
18 | S78C | 0.08 ± 0.16
19 | S43P | -0.007 ± 0.071
20 | F57W | -0.127 ± 0.066
21 | G35S | 0.064 ± 0.062
22 | F50V | -0.561 ± 0.075
23 | L55E | -0.438 ± 0.085
24 | D29L | -0.547 ± 0.11

Row | Variant | abundance fitness
25 | N68Y | -0.162 ± 0.15
26 | G24M | -0.78 ± 0.25
27 | L32N | -0.371 ± 0.2
28 | E72K | -0.049 ± 0.076
29 | E10H | 0.243 ± 0.12
30 | R19Q | -0.218 ± 0.09
31 | L71H | -0.402 ± 0.35
32 | Q27M | -0.288 ± 0.12
33 | S76V | -0.015 ± 0.053
34 | E51G | -0.251 ± 0.16
35 | K14Q | 0.048 ± 0.084
36 | L37F | -0.06 ± 0.098
37 | V30W | -0.386 ± 0.11
38 | G39E | -0.344 ± 0.081
39 | E10T | -0.121 ± 0.1
40 | T74W | -0.224 ± 0.08
41 | S56Q | -0.577 ± 0.12
42 | N40P | -0.276 ± 0.096
43 | A28Q | -0.225 ± 0.1
44 | L67N | -0.553 ± 0.28
45 | D75L | -0.214 ± 0.08
46 | Q44E | 0.266 ± 0.05
47 | D2I | 0.413 ± 0.15
48 | A52L | -0.275 ± 0.084

Row | Variant | abundance fitness
49 | T46Q | -0.314 ± 0.15
50 | G31T | -0.085 ± 0.2
51 | S77R | -0.022 ± 0.039
52 | A33W | -0.195 ± 0.068
53 | S56L | -0.88 ± 0.12
54 | F16V | -0.515 ± 0.1
55 | I21M | -0.236 ± 0.082
56 | C61N | -0.24 ± 0.17
57 | E51I | -0.818 ± 0.17
58 | G24W | -0.806 ± 0.19
59 | S78P | -0.019 ± 0.1
60 | Q27S | -0.369 ± 0.1
61 | A33Q | 0.096 ± 0.081
62 | A3L | 0.362 ± 0.059
63 | Q11T | 0.036 ± 0.099
64 | E1R | 0.102 ± 0.099
65 | K69I | 0.102 ± 0.15
66 | T36W | -0.532 ± 0.11
67 | T46H | -0.261 ± 0.16
68 | L32V | -0.183 ± 0.071
69 | A33C | -0.474 ± 0.15
70 | P65D | -0.053 ± 0.083
71 | I47E | -1.12 ± 0.23
72 | E72D | 0.004 ± 0.065

Row | Variant | abundance fitness
73 | Y38R | -0.383 ± 0.064
74 | P65E | -0.193 ± 0.072
75 | G35F | -0.211 ± 0.19
76 | L9V | -0.095 ± 0.058
77 | E1Q | 0.209 ± 0.14
78 | D75T | -0.274 ± 0.15
79 | F42Y | 0.048 ± 0.11
80 | L71K | -0.677 ± 0.21
81 | I47R | -0.555 ± 0.076
82 | E1A | -0.211 ± 0.11
83 | G35H | -0.37 ± 0.24
84 | S5C | 0.113 ± 0.093
85 | L71D | -0.711 ± 0.47
86 | M60I | -0.811 ± 0.36
87 | A33T | -0.405 ± 0.16
88 | D75H | 0.395 ± 0.32
89 | F42W | -0.191 ± 0.065
90 | P65R | -0.205 ± 0.051
91 | R19I | -0.212 ± 0.18
92 | A28V | -0.495 ± 0.093
93 | L66V | -0.18 ± 0.05
94 | Q44F | -0.323 ± 0.14
95 | L55P | -0.867 ± 0.18
96 | Q15L | -0.184 ± 0.076

Row | Variant | abundance fitness
97 | F16I | -0.532 ± 0.25
98 | D29C | -0.592 ± 0.19
99 | T36M | 0.02 ± 0.069
100 | G31Y | -0.957 ± 0.4
101 | Q54W | -0.669 ± 0.11
102 | K64A | -0.199 ± 0.061
103 | P65S | -0.179 ± 0.064
104 | S6F | 0.355 ± 0.15
105 | Q44H | -0.046 ± 0.11
106 | S6A | 0.427 ± 0.051
107 | K62L | -0.119 ± 0.061
108 | F16M | -0.612 ± 0.23
109 | I47Q | -0.954 ± 0.33
110 | D7W | -0.427 ± 0.11
111 | P65H | -0.173 ± 0.13
112 | K64R | 0.002 ± 0.045
113 | G31L | -0.509 ± 0.13
114 | S77T | 0.061 ± 0.061
115 | K58M | -0.024 ± 0.095
116 | S6Q | 0.436 ± 0.087
117 | S5E | 0.111 ± 0.071
118 | F25L | -0.12 ± 0.069
119 | L63K | -0.887 ± 0.31
120 | T36I | -0.178 ± 0.14

Row | Variant | abundance fitness
121 | K64T | -0.401 ± 0.096
122 | D2G | 0.411 ± 0.05
123 | K69D | -0.19 ± 0.11
124 | T45G | -0.076 ± 0.039
125 | S78Y | -0.008 ± 0.19
126 | G35W | -0.439 ± 0.092
127 | W70H | -0.374 ± 0.23
128 | G39S | -0.258 ± 0.074
129 | L53T | -0.336 ± 0.11
130 | Q44T | 0.118 ± 0.064
131 | P65Y | -0.158 ± 0.11
132 | W70Y | -0.296 ± 0.18
133 | S43K | -0.234 ± 0.079
134 | G39N | -0.213 ± 0.35
135 | L32P | -0.898 ± 0.22
136 | T46A | -0.125 ± 0.068
137 | F16T | -0.429 ± 0.16
138 | S5Q | 0.042 ± 0.097
139 | V30L | -0.175 ± 0.081
140 | D7N | -0.305 ± 0.36
141 | D2R | 0.312 ± 0.048
142 | S77V | 0.045 ± 0.039
143 | T45H | -0.055 ± 0.17
144 | N40Y | -0.282 ± 0.12

Row | Variant | abundance fitness
145 | Q15P | -0.745 ± 0.21
146 | L55T | -0.746 ± 0.15
147 | R19V | -0.586 ± 0.11
148 | S76D | 0.089 ± 0.082
149 | Q15N | 0.301 ± 0.16
150 | E1W | 0.144 ± 0.12
151 | L53R | -0.052 ± 0.045
152 | Q54F | -0.858 ± 0.34
153 | R19E | -0.36 ± 0.12
154 | F50M | -0.597 ± 0.13
155 | N40V | -0.131 ± 0.053
156 | F12N | -0.192 ± 0.3
157 | K62Q | -0.184 ± 0.082
158 | E51S | -0.723 ± 0.12
159 | E73S | -0.126 ± 0.061
160 | T26N | -0.436 ± 0.22
161 | A13Y | -0.505 ± 0.2
162 | A52M | -0.341 ± 0.12
163 | D2N | 0.256 ± 0.091
164 | P4I | 0.13 ± 0.16
165 | C61L | -0.048 ± 0.05
166 | R49W | 0.051 ± 0.42
167 | Q54T | -0.145 ± 0.064
